Among the data in patent US20130189714A1, “METHOD FOR THE DETECTION AND/OR QUANTIFICATION OF THE INTERACTION OF PLATELETS WITH INTERACTION PARTNERS” (SANOFI, priority 2010, published 2013) are S/B, % inhibition of platelet adhesion and S/B (number platelets attached to vWF-A1 vs BSA) values, retold here.

In experiment [1] the target is collagen receptor on live human platelets (human). As to the kind of experiment: platelet adhesion to rat tail collagen 1 coated wells vs BSA, 6 plates under automated conditions, Acumen cytometry.
The target in experiment [2] is platelet glycoprotein GpIb alpha (CD42b antigen), on live human platelets (human) (UniProt P07359). As to the kind of experiment: platelet adhesion to vWF-A1 coated wells, AK2 at 2 ug/ml, Acumen cytometry.
Experiment [3] has the same target. The experiment can be described thus: platelet adhesion to vWF-A1 coated wells vs BSA-coated wells, optimized washer settings, Acumen cytometry.
Experiment [4] shares this target. The experiment can be described thus: platelet adhesion to coated wells, optimized wash program, Acumen cytometry; reference BSA-coated wells.
The target is the same in experiment [5]. The experiment can be described thus: platelet adhesion to vWF-A1 coated wells vs BSA, automated run of 30 plates, Acumen cytometry.

Chain of platelet glycoprotein GpIb alpha (CD42b antigen), on live human platelets (human) (P07359 17-652): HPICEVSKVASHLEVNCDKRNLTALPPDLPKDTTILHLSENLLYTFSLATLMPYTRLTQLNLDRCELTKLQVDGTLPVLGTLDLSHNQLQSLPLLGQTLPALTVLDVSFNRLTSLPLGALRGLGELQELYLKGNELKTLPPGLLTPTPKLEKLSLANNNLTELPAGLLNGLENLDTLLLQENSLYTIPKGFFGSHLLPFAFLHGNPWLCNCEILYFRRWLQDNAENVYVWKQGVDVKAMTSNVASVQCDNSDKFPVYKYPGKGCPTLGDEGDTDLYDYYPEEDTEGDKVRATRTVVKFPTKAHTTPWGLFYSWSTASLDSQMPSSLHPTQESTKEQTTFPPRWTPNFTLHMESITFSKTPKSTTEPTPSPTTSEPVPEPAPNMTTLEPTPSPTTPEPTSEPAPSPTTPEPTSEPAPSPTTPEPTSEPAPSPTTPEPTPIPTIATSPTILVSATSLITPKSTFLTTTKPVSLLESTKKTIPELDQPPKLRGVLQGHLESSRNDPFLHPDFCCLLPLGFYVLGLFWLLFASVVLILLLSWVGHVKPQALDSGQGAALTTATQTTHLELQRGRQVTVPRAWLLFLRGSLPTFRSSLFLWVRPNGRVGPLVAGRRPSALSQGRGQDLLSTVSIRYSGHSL
Chain of vWF-A1 (von Willebrand factor A1 domain, Aa 475-706), His-tagged recombinant protein (ligand) (chain): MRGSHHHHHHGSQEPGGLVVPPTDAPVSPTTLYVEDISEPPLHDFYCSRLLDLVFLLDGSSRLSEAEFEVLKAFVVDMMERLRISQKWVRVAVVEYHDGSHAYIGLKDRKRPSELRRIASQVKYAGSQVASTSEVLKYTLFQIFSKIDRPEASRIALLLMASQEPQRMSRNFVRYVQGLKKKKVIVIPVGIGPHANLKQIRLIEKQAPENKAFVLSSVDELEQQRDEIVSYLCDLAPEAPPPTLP

Substance “Collagen I (rat tail, SIGMA C8897) (from UniProt P02454 152-1207; P02466 86-1125) (ligand)” registered a S/B in experiment [1] of 20 fold.

Take “Mouse anti-human CD42b monoclonal antibody, clone AK2 (Chemicon international, catalog No. CBL166)”: the % inhibition of platelet adhesion in experiment [2] came to 90%.

Regarding “vWF-A1 (von Willebrand factor A1 domain, Aa 475-706), His-tagged recombinant protein (ligand)”, the S/B was determined as 78 fold in experiment [3] and 20 fold in experiment [5]. Moreover, the S/B (number platelets attached to vWF-A1 vs BSA) in experiment [4] is 70 fold.
